Measured values published in patent US6509447B1, “G protein chimeras and methods of screening compounds” (Glaxo Welcome Inc., priority 1997, dated 2003).

What was measured:
Format in all cases: cell-based
serotonin 5HT1A receptor [1] = biological target: T1, serotonin 5HT1A receptor (Homo sapiens, UniProt P08908); experiment: Reverse halo assay for FUS1-HIS3 expression, MMY9 cells, 5-HT1A; settings: MMY9 cells with pRS314-GPA1 and 5-HT1A receptor, 40 nmol serotonin
T1 construct: expressed in transfected cells; host or cells: Saccharomyces cerevisiae strains MMY9 and MMY11, plasmid pDT-PGK-5-HT1A
T1 sequence (P08908 1-422): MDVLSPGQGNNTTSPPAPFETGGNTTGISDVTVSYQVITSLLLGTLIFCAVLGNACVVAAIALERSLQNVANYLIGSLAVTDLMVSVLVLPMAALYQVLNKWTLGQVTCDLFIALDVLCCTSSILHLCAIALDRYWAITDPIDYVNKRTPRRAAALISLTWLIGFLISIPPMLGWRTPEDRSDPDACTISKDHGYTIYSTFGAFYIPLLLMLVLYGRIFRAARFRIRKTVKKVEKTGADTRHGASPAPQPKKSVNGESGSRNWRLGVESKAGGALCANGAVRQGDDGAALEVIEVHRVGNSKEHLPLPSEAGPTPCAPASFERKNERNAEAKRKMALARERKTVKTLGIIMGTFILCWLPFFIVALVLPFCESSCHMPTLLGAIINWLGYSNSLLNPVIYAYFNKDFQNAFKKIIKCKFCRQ
Protocol: (§1) Assay for FUS1-HIS3 Expression. Reverse halo assays were carried out by growing MMY9 cells to early stationary phase (OD600≈4) in liquid SC-glucose (2%) medium lacking tryptophan and uracil. A uniform layer of cells (5×10^7) was plated to 22.5 cm by 22.5 cm bioassay dishes (Nunc) in 100 ml SC-glucose agar (1%) equilibrated to 50° C. This medium lacked tryptophan, uracil and histidine, and was supplemented with 10 mM 3-aminotriazole, and buffered to pH 7.0 with 0.1M sodium phosphate. Antibiotic discs were placed on the solidified agar, and a volume of agonist solution (1-5 μl) was applied to each disc. Plates were incubated at 30° C. for 3 days.
(§2) The four receptors were: the melatonin ML1B receptor, the serotonin 5HT1A receptor, the somatostatin SST2 receptor and the purinergic nucleotide receptor, P2Y2. […] Activation of the pheromone response pathway was monitored with two integrated reporter genes: […] allowing a growth readout in medium lacking histidine, and FUS1-lacZ allowing a β-galactosidase readout. […] Agonist-dependent activation of FUS1-HIS3 was determined by reverse halo assay in which agonists were applied to the filter discs in the arrangement shown in panel A, in quantities as follows: 3 nmol of somatostatin-14 (S-14); 40 nmol of melatonin (Mel); 3 nmol of α-factor; 100 nmol of UTP; 40 nmol of serotonin (5-HT). […]

Ste2p = biological target: T2, Ste2p (Saccharomyces cerevisiae, UniProt D6VTK4); experiment: Reverse halo assay for FUS1-HIS3 expression, MMY9 cells, Ste2p; set-up: stimulates the endogenous yeast receptor Ste2p; endogenous in cells; host or cells: Saccharomyces cerevisiae strain MMY9 (derived from W303-1A, MATa); settings: MMY9 cells with pRS314-GPA1, 3 nmol α-factor
T2 sequence (D6VTK4 1-431): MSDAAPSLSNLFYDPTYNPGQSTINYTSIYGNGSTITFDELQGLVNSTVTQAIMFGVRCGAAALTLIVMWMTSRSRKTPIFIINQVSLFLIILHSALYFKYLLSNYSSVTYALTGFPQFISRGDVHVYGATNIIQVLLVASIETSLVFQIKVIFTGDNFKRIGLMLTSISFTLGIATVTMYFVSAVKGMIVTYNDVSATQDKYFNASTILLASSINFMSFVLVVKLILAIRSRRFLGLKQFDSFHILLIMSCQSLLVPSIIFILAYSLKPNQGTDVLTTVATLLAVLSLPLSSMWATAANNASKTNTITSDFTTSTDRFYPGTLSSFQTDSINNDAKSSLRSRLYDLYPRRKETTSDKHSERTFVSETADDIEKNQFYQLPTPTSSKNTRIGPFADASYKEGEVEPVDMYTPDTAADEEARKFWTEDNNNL
Protocol: as §1, §2

serotonin 5HT1A receptor [2] = biological target: T1, serotonin 5HT1A receptor; experiment: CPRG assay, MMY11 cells expressing 5-HT1A receptor plus Gα subunit; set-up: key: weak activation insufficient to carry out curve-fitting was detected; NC: no coupling was detected
Protocol: Assay for combined FUS1-lacZ and FUS1-HIS3 Expression. In vivo assays of reporter gene induction (CPRG assays) were carried out by suspending cells to 0.02 OD600 in 200 μl SC-glucose (2%) lacking tryptophan, uracil and histidine. This medium was supplemented with agonists, and additionally 10 mM 3-aminotriazole and the β-galactosidase (lacZ) substrate chlorophenolred-β-D-galactopyranoside (CPRG; Boehringer) to a concentration of 0.1 mg/ml. To visualise the colour change reaction, the medium was buffered to pH 7 with 0.1 M sodium phosphate. The assay was conducted in a 96-well microtitre plate format. Plates were incubated for 24 hours without agitation, and absorbance at 570 nm was determined using a Victor microtitre plate reader (Wallac). EC50 values (+/−standard error) were estimated by curve-fitting, using the Robosage software package.
MMY11 was used in an experiment in which cells were transformed with pairs of plasmids as before, one to express a Gα subunit and the other a receptor expression construct. […] Where pheromone response pathway activation was detected, the agonist concentration required to yield a half-maximal response (EC50+/−standard error; all values in nM except where otherwise indicated) was determined by curve-fitting, and is shown in Table 4A. Where no coupling was detected, this is also indicated (NC).

B1: Gpa1p: endogenous yeast Gα subunit, product of the GPA1 gene (protein, UniProt P08539 2-472, looked up)
Guanine nucleotide-binding …: GCTVSTQTIGDESDPFLQNKRANDVIEQSLQLEKQRDKNEIKLLLLGAGESGKSTVLKQLKLLHQGGFSHQERLQYAQVIWADAIQSMKILIIQARKLGIQLDCDDPINNKDLFACKRILLKAKALDYINASVAGGSDFLNDYVLKYSERYETRRRVQSTGRAKAAFDEDGNISNVKSDTDRDAETVTQNEDADRNNSSRINLQDICKDLNQEGDDQMFVRKTSREIQGQNRRNLIHEDIAKAIKQLWNNDKGIKQCFARSNEFQLEGSAAYYFDNIEKFASPNYVCTDEDILKGRIKTTGITETEFNIGSSKFKVLDAGGQRSERKKWIHCFEGITAVLFVLAMSEYDQMLFEDERVNRMHESIMLFDTLLNSKWFKDTPFILFLNKIDLFEEKVKSMPIRKYFPDYQGRVGDAEAGLKYFEKIFLSLNKTNKPIYVKRTCATDTQTMKFVLSAVTDLIIQQNLKKIGII
agonist-dependent activation of FUS1-HIS3 (halo of cell growth) (serotonin 5HT1A receptor [1]): did not activate FUS1-HIS3 in response to the agonist serotonin
agonist-dependent activation of FUS1-HIS3 (halo of cell growth) (Ste2p): increased expression of FUS1-HIS3 to enable a halo of cell growth
coupling class where no EC50 could be fitted (serotonin 5HT1A receptor [2]): weak
